Patent publication US20220281980A1
Where “and” joins values, the source holds several entries; their conditions need not be identical. Equal values may be shown once.

Key:
[1] = molecular target: human MICA/B endogenously expressed on A2058 cells (MICA alleles *008/*018) (human) (UniProt Q29983); test: flow cytometry, tumor cells with endogenous MICA/B
[2] = molecular target: overexpressed cyno MICA/B (CHO clones #4 and #6); test: Scatchard analysis, 125I-MICA.36 on transduced CHO cells
[3] = molecular target: overexpressed human MICA*008 and MICB*005 on CHO cells; test: as above

| EC50 [1] | Kd [2] [nM] | Kd [3] [nM] | Binder |
| --- | --- | --- | --- |
| 5.39 nM | – | – | 19G6 (antibody, V domains shown) VH: QVQLVESGGGVVQPGRSLRLSCAASGFTFSNYAMHWVRQAPGEGLEWVALIWYDGSNKFYGDSVKGRFTISRDNSKNTLYLQMNSLSAEDTAVYYCAREGSGHYWGQGTLVTVSS VL: AIQLTQSPSSLSASVGDRVTITCRASQGISSALAWYQQKPGKVPKSLIYDASSLESGVPSRFSGSGSGTDFTLTISSLQPEDFATYYCQQFNSYPITFGQGTRLEIK |
| – | 5 to 11 | 1 to 2 | MICA.36 (antibody, V domains shown) VH: QVQLVESGGGVVQPGRSLRLSCAASGFTFSNYAMHWVRQAPGEGLEWVALIWYDGSNKFYGDSVKGRFTISRDNSKNTLYLQMNSLSAEDTAVYYCAREGSGHYWGQGTLVTVSS VL: AIQLTQSPSSLSASVGDRVTITCRASQGISSALAWYQQKPGKVPKSLIYDASSLESGVPSRFSGSGSGTDFTLTISSLQPEDFATYYCQQFNSYPITFGQGTRLEIK |
| 7.68 nM and 10.9 nM | – | – | 16A5 (antibody, V domains shown) VH: QVQLVESGGDVVQPGRSLRLSCAASGFTFSNYNIHWVRQAPGKGLEWVAVIRYDGINKYYADSVKGRFIISRDNSKNTLYLQMNSLRAEDTAVYYCASGPPDAFNIWGQGTMVTVSS VL: AIQLTQSPSSLSASVGDRVTITCRASQGISSALAWYQQKPGKVPKSLIYDASSLESGVPSRFSGSGSGTDFTLTISSLQPEDFATYYCQQFNSYPITFGQGTRLEIK |
